Experimental data reported in patent US20240337665A1 (INDI MOLECULAR, published 2024).
Bridge positions count the residues as written; N and C are the ends. Square brackets hold non-standard residues; d marks the D form. Ends that are not written are not given here. I, II: the chains in the order shown. Lys(N3) = [N-]=[N+]=NCCCC[C@H](N)C(=O)O; Pra = C#CC[C@H](N)C(=O)O

Legend:
[1] = target: T1, Plasmodium falciparum Histidine Rich Protein-2 (Plasmodium falciparum); test: assay not described; monoligand Cy(YKYYR)
T1 construct: the construct used in the assay is not described; also called Pf.HRP-2
T1 chain: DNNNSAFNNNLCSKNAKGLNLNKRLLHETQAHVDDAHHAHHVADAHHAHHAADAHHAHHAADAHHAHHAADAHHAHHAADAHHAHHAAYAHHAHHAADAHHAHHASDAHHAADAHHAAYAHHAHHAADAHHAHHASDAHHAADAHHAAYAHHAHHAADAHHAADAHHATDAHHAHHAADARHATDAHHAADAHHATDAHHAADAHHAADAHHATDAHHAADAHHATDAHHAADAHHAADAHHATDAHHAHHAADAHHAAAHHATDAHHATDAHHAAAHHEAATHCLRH

[2] = target: T1, Plasmodium falciparum Histidine Rich …; test: assay not described; two Cy(YKYYR) PCCs joined by about a 1.5 nm linker
[3] = target: T2, Full-length His-tagged IL-17F protein (ab167911, Abcam) (human, UniProt Q96PD4 31-163); test: point ELISA; macrocycle on NeutrAvidin plate, His-tagged IL-17F against His-tagged IL-17A at 100 nM
T2 construct: Bought protein, called full-length and His-tagged; also called human IL-17F protein; recombinant human IL-17F protein; not shown: His tag
T2 sequence: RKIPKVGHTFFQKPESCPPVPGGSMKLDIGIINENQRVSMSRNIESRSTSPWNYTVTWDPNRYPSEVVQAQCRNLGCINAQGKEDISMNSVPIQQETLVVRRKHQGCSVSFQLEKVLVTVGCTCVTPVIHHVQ

[4] = target: T2, Full-length His-tagged IL-17F protein …; test: sandwich ELISA; biotinylated macrocycle on NeutrAvidin plate, His-tagged IL-17F titrated
[5] = target: T1, Plasmodium falciparum Histidine Rich …; test: assay not described; monoligand cy(GWNVDL)
[6] = target: T2, Full-length His-tagged IL-17F protein …; test: not stated in the sentence (same number as the ELISA EC50 of paragraph 504); monoligand Cy(RSYNKX1X2), not the biligand
[7] = target: T2, Full-length His-tagged IL-17F protein …; test: fluorescence polarization in solution; IL-17F titrated against 5-FITC-tagged macrocycle; 5-FITC-tagged LF2, fluorescence polarization in solution
[8] = target: T1, Plasmodium falciparum Histidine Rich …; test: assay not described; biligand cy(YKYYR)-linker-cy(GWNVDL)
[9] = target: T1, Plasmodium falciparum Histidine Rich …; test: assay not described
[10] = target: T2, Full-length His-tagged IL-17F protein …; test: point ELISA; macrocycle on NeutrAvidin plate, His-tagged IL-17F against His-tagged IL-17A
[11] = target: T2, Full-length His-tagged IL-17F protein …; test: point ELISA; surface-immobilized macrocycle with IL-17F, IL-17A or no protein
[12] = target: T3, His6-PEG3-SQFEKFPSPPVPGGS (not fully specified (N-terminus); printed as His6-PEG3-SQFEKFPSPPVPGGS); test: point ELISA; macrocycle on NeutrAvidin plate, His-tagged epitope, anti-His-AP detection
T3 construct: Synthetic; residues N-terminal to C48S scrambled
T3 peptide: SQFEKFPSPPVPGGS

[13] = target: T4, His6-PEG3-FFQKPESSPPVPGGS (human, not fully specified (N-terminus); printed as His6-PEG3-FFQKPESSPPVPGGS); test: point ELISA; macrocycle on NeutrAvidin plate, 2 µM His-tagged epitope
T4 construct: Not clear whether the listing entry holds the His6
T4 peptide: FFQKPESSPPVPGGS

[14] = target: T5, His6-PEG3-FFQKPESSPVSPGPG (not fully specified (N-terminus); printed as His6-PEG3-FFQKPESSPVSPGPG); test: as above
T5 construct: Synthetic; residues C-terminal to C48S scrambled
T5 peptide: FFQKPESSPVSPGPG

[15] = target: T2, Full-length His-tagged IL-17F protein …; test: fluorescence polarization in solution; IL-17F titrated against 5-FITC-tagged macrocycle; 5-FITC-tagged LF1, fluorescence polarization in solution
[16] = target: T2, Full-length His-tagged IL-17F protein …; test: sandwich ELISA; biotinylated macrocycle on NeutrAvidin plate, His-tagged IL-17F titrated, anti-His-AP detection
[17] = target: T2, Full-length His-tagged IL-17F protein …; test: binding to His-tagged IL-17F human recombinant protein (ELISA format); PEG3-linked biligand; binding to His-tagged IL-17F, not in solution
[18] = target: T2, Full-length His-tagged IL-17F protein …; test: binding to His-tagged IL-17F human recombinant protein
[19] = target: T2, Full-length His-tagged IL-17F protein …; test: binding to His-tagged IL-17F human recombinant protein (ELISA format); reference: the individual PCC macrocycles Cy(RRATSX1X2) and Cy(RSYNKX1X2)
[20] = target: T2, Full-length His-tagged IL-17F protein …; test: point ELISA; recombinant human IL-17F against IL-17A
[21] = target: T2, Full-length His-tagged IL-17F protein …; test: fluorescence polarization in solution; in solution by fluorescence polarization

In the case of YKYYR (also: cyclic, ring type not given here, also called cyclic YKYYR) [Cy(YKYYR)], the EC50 [1] is reported as 220 nM.

B1: linked biligand of two Cy(YKYYR) PCCs (designed binder)
peptide: YKYYR
modifications: not fully specified (bridges)
notes: also called The resultant linked biligand
B1 gave an EC50 [2] of 20.8 nM.

B2: Biotin-PEG3-Cy(KKGWPX1X2) (peptide)
peptide: KKGWP[Lys(N3)][Pra]
modifications: triazole 6-7; not fully specified (N-terminus, bridges); printed as Biotin-PEG3-Cy(KKGWPX1X2); also: no peptide bond X6-X7, Pra is the true N-terminus, Az4 the true C-terminus, Biotin-PEG3 label at N-terminus (on Pra)
In the case of B2, the “selectivity for IL-17F over IL-17A” value [3] is reported as 4 ratio IL-17F:IL-17A and the EC50 [4] is reported as 24 nM.

With GWNVDL (not fully specified (bridges); also: cyclic, ring closure not given here, also called cy(GWNVDL)) [cyclic PCC with variable sequence GWNVDL] the EC50 [5] was 50 nM.

B3: Biotin-PEG3-Cy(RSYNKX1X2) (peptide)
peptide: RSYNK[Lys(N3)][Pra]
modifications: triazole 6-7; not fully specified (N-terminus, bridges); printed as Biotin-PEG3-Cy(RSYNKX1X2); also: no peptide bond X6-X7, Pra is the true N-terminus, Az4 the true C-terminus, Biotin-PEG3 label at N-terminus (on Pra)
notes: also called LF2
In the case of B3, the Kd [6] is reported as 15 nM, the Kd [7] is reported as 28 nM and the “selectivity for IL-17F over IL-17A” value [3] is reported as 4 ratio IL-17F:IL-17A. It also gave an EC50 [4] of 15 nM.

B4: cy(YKYYR)-linker-cy(GWNVDL) (designed binder)
peptide 1: YKYYR
peptide 2: GWNVDL
modifications: not fully specified (bridges); printed as cy(YKYYR)-linker-cy(GWNVDL)
notes: also called The resultant biligand
For B4, the EC50 [8] was 0.54 nM and the “fold improvement over the better of the two ligand components” value [9] was 100 fold.

B5: Cy(RRATSX1X2)-PEG3-biotin (peptide)
peptide: RRATS[Lys(N3)][Pra]
modifications: triazole 6-7; not fully specified (C-terminus, bridges); printed as Cy(RRATSX1X2)-PEG3-biotin; also: no peptide bond X6-X7, Pra is the true N-terminus, Az4 the true C-terminus, PEG3-biotin label at C-terminus (on Az4)
notes: Biotin-PEG3 form used on NeutrAvidin plates; also called LF1
B5 was tested, and the “selectivity for IL-17F over IL-17A” value [10] was 2 ratio IL-17F:IL-17A, the “selectivity for IL-17F over IL-17A” value [11] was 10 ratio IL-17F:IL-17A and the binding result [12] was “no binding (tested: 2 µM epitope)”. For the same binder, the binding result [13] was “binds”, the binding result [14] was “binds” and the Kd [15] was 50 nM. The EC50 [16] was 66 nM.

B6: Cy(RRAQSX1X2)-PEG3-biotin (peptide)
peptide: RRAQS[Lys(N3)][Pra]
modifications: triazole 6-7; not fully specified (C-terminus, bridges); printed as Cy(RRAQSX1X2)-PEG3-biotin; also: no peptide bond X6-X7, Pra is the true N-terminus, Az4 the true C-terminus, PEG3-biotin label at C-terminus (on Az4)
For B6, the “selectivity for IL-17F over IL-17A” value [10] was 2 ratio IL-17F:IL-17A, the binding result [12] was “no binding (tested: 2 µM epitope)” and the binding result [13] was “binds”. The binding result [14] was “binds” and the EC50 [16] was 52 nM.

B7: Biotin-PEG3-Cy(RSYNKX1X2)-PEG3-Cy(RRATSX1X2) (designed binder)
peptide 1: RSYNK[Lys(N3)][Pra]
peptide 2: RRATS[Lys(N3)][Pra]
modifications: triazole I:6-I:7, II:6-II:7; not fully specified (N-terminus, C-terminus); printed as Biotin-PEG3-Cy(RSYNKX1X2)-PEG3-Cy(RRATSX1X2); also: chain 1 joined to chain 2 through one PEG3 linker, backbone orders Pra-RSYNK-Az4 and Pra-RRATS-Az4, no bonds X6-X7
notes: One covalent molecule: two macrocyclic peptides joined by a single PEGylated amino acid (not a peptide linker), written here as two peptide segments; also called Bi-LF; anti-IL-17F biligand with PEG3 linker
B7 was tested, and the Kd [17] was 0.246 nM, the “fold better binder than the biligands with other linkers” value [18] was roughly 10 fold and the “times stronger than the other biligands” value [18] was no less than 16 fold. The “fold improvement in affinity relative to the individual PCC macrocyclic ligands” value [19] was greater than 100 fold, the “selectivity for IL-17F over IL-17A” value [20] was 4 ratio IL-17F:IL-17A and the Kd [21] was 0.252 nM.
